Laboratory results as given in article PMC12518634 (2025).

Assays:
[1] = target: His-HDAC2, recombinant (UniProt Q92769 1-488); assay: SPR
[2] = target: His-HDAC1, recombinant (human, UniProt Q13547 1-482); assay: SPR
His-HDAC1, recombinant, sequence (Q13547 whole entry): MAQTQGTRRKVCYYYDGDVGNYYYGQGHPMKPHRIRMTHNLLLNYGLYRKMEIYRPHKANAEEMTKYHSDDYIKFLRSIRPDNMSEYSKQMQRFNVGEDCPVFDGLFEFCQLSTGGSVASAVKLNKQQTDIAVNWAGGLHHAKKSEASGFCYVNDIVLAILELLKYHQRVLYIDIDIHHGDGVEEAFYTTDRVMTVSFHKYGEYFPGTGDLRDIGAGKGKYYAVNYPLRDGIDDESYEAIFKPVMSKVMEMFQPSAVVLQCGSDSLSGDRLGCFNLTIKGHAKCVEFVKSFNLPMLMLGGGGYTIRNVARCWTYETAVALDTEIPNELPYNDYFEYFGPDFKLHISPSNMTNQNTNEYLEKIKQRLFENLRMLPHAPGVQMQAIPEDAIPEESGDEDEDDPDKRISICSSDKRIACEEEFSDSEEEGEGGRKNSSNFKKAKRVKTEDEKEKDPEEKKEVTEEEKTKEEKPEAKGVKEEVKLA

His-HDAC2, recombinant, sequence (Q92769 whole entry): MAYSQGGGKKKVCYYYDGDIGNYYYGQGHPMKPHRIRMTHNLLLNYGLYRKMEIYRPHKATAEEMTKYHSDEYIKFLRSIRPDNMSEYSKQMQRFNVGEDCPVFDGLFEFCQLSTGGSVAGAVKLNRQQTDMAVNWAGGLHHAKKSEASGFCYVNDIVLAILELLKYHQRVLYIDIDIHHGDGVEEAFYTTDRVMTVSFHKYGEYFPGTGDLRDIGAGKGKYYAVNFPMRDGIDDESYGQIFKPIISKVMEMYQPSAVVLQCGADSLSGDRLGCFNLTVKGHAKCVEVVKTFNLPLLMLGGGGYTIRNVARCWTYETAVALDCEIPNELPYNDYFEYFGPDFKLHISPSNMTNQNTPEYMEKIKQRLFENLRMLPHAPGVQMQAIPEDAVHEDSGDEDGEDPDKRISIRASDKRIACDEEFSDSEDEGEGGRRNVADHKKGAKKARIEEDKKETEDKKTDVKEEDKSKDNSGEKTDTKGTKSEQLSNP

B1: GST-PFKL, recombinant (enzyme)
chain: MAAVDLEKLRASGAGKAIGVLTSGGDAQGMNAAVRAVTRMGIYVGAKVFLIYEGYEGLVEGGENIKQANWLSVSNIIQLGGTIIGSARCKAFTTREGRRAAAYNLVQHGITNLCVIGGDGSLTGANIFRSEWGSLLEELVAEGKISETTARTYSHLNIAGLVGSIDNDFCGTDMTIGTDSALHRIMEVIDAITTTAQSHQRTFVLEVMGRHCGYLALVSALASGADWLFIPEAPPEDGWENFMCERLGETRSRGSRLNIIIIAEGAIDRNGKPISSSYVKDLVVQRLGFDTRVTVLGHVQRGGTPSAFDRILSSKMGMEAVMALLEATPDTPACVVTLSGNQSVRLPLMECVQMTKEVQKAMDDKRFDEATQLRGGSFENNWNIYKLLAHQKPPKEKSNFSLAILNVGAPAAGMNAAVRSAVRTGISHGHTVYVVHDGFEGLAKGQVQEVGWHDVAGWLGRGGSMLGTKRTLPKGQLESIVENIRIYGIHALLVVGGFEAYEGVLQLVEARGRYEELCIVMCVIPATISNNVPGTDFSLGSDTAVNAAMESCDRIKQSASGTKRRVFIVETMGGYCGYLATVTGIAVGADAAYVFEDPFNIHDLKVNVEHMTEKMKTDIQRGLVLRNEKCHDYYTTEFLYNLYSSEGKGVFDCRTNVLGHLQQGGAPTPFDRNYGTKLGVKAMLWLSEKLREVYRKGRVFANAPDSACVIGLKKKAVAFSPVTELKKDTDFEHRMPREQWWLSLRLMLKMLAQYRISMAAYVSGELEHVTRRTLSMDKGF
With B1 as the binder, how does the Kd [1] read?
Its Kd is 9.5 nM.

And the Kd [2]?
The Kd was 2.18 nM.
